# Target: CD3 on Jurkat cells (Jurkat靶标细胞) (UniProt P07766)
# Experiment: flow cytometry, culture supernatant on Jurkat cells (negative control; TG1 background 132.03)
# Sequence of UniProt P07766 (P07766 23-207): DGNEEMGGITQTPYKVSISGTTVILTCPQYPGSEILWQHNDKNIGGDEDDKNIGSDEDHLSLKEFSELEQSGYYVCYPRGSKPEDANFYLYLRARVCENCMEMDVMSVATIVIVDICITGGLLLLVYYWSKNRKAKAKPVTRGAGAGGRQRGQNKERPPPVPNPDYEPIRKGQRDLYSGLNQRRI
substance,measurement,value
NC-sdAb(相同形式的非相关性sdAb) (VHH),结合MFI,115 MFI

# Reference: CN106117361A
